What was measured:
[1] = target: T1, human LILRB1 expressed on cells (human, UniProt Q8NHL6 24-650); experiment: flow cytometry, CHO-LILRB1 cells
T1 construct: In 293T cells it was expressed from pCMV3-LILRB1-GFP; also called CHO-LILRB1; Jurkat-LILRB1

[2] = target: T2, human LILRB2 expressed on cells (human, UniProt Q8N423 22-597); experiment: flow cytometry, CHO-LILRB2 cells
T2 construct: In 293T cells it was expressed from pCMV3-LILRB2-GFP; also called CHO-LILRB2; Jurkat-LILRB2

[3] = target: T1, human LILRB1 expressed on cells; experiment: flow cytometry, CHO-LILRB1 cells; remark: listed apart in the source
[4] = target: T1, human LILRB1 expressed on cells; experiment: flow cytometry, CHO-LILRB1 cells; blocked ligand: APC HLA-G trimer tetramer
[5] = target: T3, LILRB1-ECD-HIS (SinoBiological Cat #: 16014-H02H) (human, UniProt Q8NHL6 24-461); experiment: SPR (Carterra LSA), antibody captured, antigen injected;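 further: kd obtained from kinetic analysis of antibody binding to the antigen, with association and dissociation phases fitted in the instrument software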
T3 construct: Bought protein; also called monomeric antigen LILRB1-ECD-HIS; not shown: His tag
T3 sequence (Q8NHL6 other isoform, or with tags, fused parts or gaps H02H H02H): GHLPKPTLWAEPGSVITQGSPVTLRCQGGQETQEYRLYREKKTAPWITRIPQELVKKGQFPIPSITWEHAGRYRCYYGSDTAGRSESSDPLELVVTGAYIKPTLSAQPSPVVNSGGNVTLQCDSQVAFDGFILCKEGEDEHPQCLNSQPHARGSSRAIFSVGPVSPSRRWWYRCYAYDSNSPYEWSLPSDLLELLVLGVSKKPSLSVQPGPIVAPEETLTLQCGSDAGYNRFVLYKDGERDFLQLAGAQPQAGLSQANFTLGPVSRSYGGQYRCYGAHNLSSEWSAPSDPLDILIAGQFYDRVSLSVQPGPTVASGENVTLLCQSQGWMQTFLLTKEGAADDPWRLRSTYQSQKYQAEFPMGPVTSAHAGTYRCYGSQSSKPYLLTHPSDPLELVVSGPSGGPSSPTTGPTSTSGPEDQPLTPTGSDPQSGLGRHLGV

[6] = target: T4, LILRB2-ECD-HIS (SinoBiological Cat #: 14132-H02H) (human, UniProt Q8N423 22-460); experiment: as above
T4 construct: Bought protein; also called monomeric antigen LILRB2-ECD-HIS; not shown: His tag
T4 sequence (Q8N423 other isoform, or with tags, fused parts or gaps H02H H02H): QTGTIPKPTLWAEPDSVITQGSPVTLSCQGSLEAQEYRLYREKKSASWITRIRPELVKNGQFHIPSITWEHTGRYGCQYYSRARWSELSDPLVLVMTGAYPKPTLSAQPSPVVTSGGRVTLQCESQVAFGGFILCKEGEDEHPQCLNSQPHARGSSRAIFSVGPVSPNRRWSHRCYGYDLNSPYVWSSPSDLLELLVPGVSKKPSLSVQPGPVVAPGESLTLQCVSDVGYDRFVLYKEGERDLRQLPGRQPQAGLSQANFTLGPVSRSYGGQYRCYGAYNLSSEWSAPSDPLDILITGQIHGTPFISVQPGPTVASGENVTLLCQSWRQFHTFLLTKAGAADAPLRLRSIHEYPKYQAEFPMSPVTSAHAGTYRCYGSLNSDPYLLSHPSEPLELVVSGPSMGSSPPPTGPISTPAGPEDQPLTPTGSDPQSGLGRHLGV

[7] = target: T4, LILRB2-ECD-HIS (SinoBiological Cat #: …); experiment: BLI epitope binning (Gator), monomeric antigen
[8] = target: T1, human LILRB1 expressed on cells; experiment: flow cytometry, Jurkat-LILRB1 cells; blocked ligand: APC HLA-G trimer tetramer
[9] = target: T2, human LILRB2 expressed on cells; experiment: flow cytometry, Jurkat-LILRB2 cells; blocked ligand: APC HLA-G monomer tetramer
[10] = target: T2, human LILRB2 expressed on cells; experiment: flow cytometry, Jurkat-LILRB2 cells
[11] = target: T1, human LILRB1 expressed on cells; experiment: flow cytometry, Jurkat-LILRB1 cells
[12] = target: T1, human LILRB1 expressed on cells; experiment: flow cytometry, CHO-LILRB1 cells; remark: listed apart in the source

T2 sequence (Q8N423 other isoform, or with tags, fused parts or gaps limits assumed): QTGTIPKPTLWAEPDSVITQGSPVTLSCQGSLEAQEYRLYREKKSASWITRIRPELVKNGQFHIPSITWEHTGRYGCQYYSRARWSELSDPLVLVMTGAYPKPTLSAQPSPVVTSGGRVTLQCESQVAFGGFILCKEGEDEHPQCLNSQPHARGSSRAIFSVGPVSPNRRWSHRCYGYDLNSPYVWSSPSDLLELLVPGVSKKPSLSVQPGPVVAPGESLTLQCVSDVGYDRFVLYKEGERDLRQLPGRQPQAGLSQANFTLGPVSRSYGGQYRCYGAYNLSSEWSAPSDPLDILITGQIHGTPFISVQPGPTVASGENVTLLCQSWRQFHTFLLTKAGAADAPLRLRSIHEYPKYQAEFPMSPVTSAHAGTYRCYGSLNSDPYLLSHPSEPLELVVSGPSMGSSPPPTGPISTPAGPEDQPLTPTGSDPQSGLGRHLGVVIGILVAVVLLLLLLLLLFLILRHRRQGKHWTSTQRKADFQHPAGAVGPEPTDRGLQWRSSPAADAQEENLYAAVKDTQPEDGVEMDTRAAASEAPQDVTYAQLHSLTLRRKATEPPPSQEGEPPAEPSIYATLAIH
T1 sequence (Q8NHL6 other isoform, or with tags, fused parts or gaps limits assumed): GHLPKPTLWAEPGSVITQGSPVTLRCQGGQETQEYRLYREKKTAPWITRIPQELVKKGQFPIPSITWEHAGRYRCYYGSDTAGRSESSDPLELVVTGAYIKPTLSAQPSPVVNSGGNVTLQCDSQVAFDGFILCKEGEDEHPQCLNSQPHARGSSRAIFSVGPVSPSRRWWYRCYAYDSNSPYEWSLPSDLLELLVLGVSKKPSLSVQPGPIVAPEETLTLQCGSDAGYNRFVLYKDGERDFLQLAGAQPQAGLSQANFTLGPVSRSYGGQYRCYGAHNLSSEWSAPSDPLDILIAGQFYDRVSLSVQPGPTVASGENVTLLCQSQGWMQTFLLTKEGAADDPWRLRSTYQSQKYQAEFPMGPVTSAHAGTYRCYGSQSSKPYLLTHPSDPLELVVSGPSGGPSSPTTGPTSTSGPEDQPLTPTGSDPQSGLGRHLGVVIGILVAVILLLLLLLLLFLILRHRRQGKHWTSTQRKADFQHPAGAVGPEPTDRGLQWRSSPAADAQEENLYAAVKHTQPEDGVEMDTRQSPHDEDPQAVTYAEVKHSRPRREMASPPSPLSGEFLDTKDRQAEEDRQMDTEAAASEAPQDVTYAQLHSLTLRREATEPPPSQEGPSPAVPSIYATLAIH

Binder | EC50 [1] | gMFI (max) [1] | EC50 [2] | gMFI (max) [2] | EC50 [3] | IC50 [4] | Kd [5] | Kd [6] | binding result [7] | IC50 [8] | IC50 [9] | EC50 [10] | EC50 [11] | EC50 (read off the curve) [12]
#22 (antibody, human IgG1, V domains shown, also called D2M002-022) VH: QVQLQQSGAELMKPGASVKISCKATGYTLSSYWIEWVKQRPGHGLEWIGEILPGSGSTNYNEKFKGKATFTADTSSNTAYMQLSSLTSEDSAVYYCARSGAGGYDSGAFAYWGQGTLVTVSA VL: DIVLTQSPASLAVSLGQRATISCRASESVDTYGNSFMHWYQQKPGQPPKLLIYRTSNLESGIPARFSGSGSRTDFTLTINPVEADDVATYYCQQSNEDPWTFGGGTKLEIK | 1.99 µg/mL | 49300 | 0.911 µg/mL | 26300 | 2.01 µg/mL | 0.758 µg/mL | 0.588 nM | 0.0323 nM | – | – | – | – | – | –
D2M002-122 (antibody, V domains shown) VH: QVQLVQSGAEVKKPGASVKVSCKASGYTFTSYWIEWVRQAPGQGLEWIGEILPGEGSTNYNAKFKGRVTFTTDTSTSTAYMELRSLRSDDTAVYYCARSGAGGYDSGAFAYWGQGTLVTVSS VL: AIQLTQSPSSLSASVGDRVTITCRASESVDTYGNSFMHWYQQKPGKAPKLLVYRTSNLESGVPSRFSGSGSGTDFTLTISSLQPEDFATYYCQQSNEDPWTFGGGTKVEIK | – | – | – | – | – | – | – | – | – | 0.501 µg/mL | 0.022 µg/mL | 0.111 µg/mL | 1.6 µg/mL | –
D2M002-124 (antibody, V domains shown) VH: QVQLVQSGAEVKKPGASVKVSCKASGYTFTSYWIEWVRQAPGQGLEWIGEILPGSGSTNYNAKFKGRVTFTTDTSTSTAYMELRSLRSDDTAVYYCARSGAGGYDSGAFAYWGQGTLVTVSS VL: AIQLTQSPSSLSASVGDRVTITCRASESVDTYGNSFMHWYQQKPGKAPKLLVYRTSNLESGVPSRFSGSGSGTDFTLTISSLQPEDFATYYCQQSNEDPWTFGGGTKVEIK | – | – | – | – | – | – | – | – | – | 0.427 µg/mL | 0.03 µg/mL | 0.145 µg/mL | 1.86 µg/mL | –
D2M002-101 (antibody, V domains shown, humanized and optimized variant tested beside D2M002-002; also called P211_A12) VH: QVQLVQSGAEVKKPGASVKVSCKASGYTFTRYVMHWVRQAPGQRLEWMGWINPNNEETKYSQKFKGRVTLTRDTSASTAYMELSSLRSEDTAVYYCARADLEILPYYDHARNAMDYWGQGTLVTVSS VL: DIQMTQSPSSVSASVGDRVTITCRASENIYSHLAWYQQKPGKAPKLLVYNAKSLQSGVPSRFSGSGSGTDFTLTISSLQPEDFATYYCQHFWSTPPTFGGGTKVEIK | – | – | – | – | – | – | – | – | – | 0.138 µg/mL | 0.025 µg/mL | 0.131 µg/mL | 0.201 µg/mL | –
#1 (antibody, human IgG1, V domains shown, also called D2M002-001) VH: EVQLQQSGPELVKPGASVKMSCKASGYTFTRYVMHWVKQKPGQGLEWIGYINPNNDGTKYNEKFKGKVTLTSDKSSSTAYMELSSLTSEDSAVYYCARGDLEILPYYDHARNAMDYWGQGTSVTVSS VL: DIVMTQSPASQSASLGESVIITCRASGNIHNYLAWYQQKQGKSPQLLVYNAKTLADGVPSRFSGSGSGTQYSLKINSLQPEDFGTYYCQHFWSSPPTFGGGTKLELK | 0.093 µg/mL | 26800 | 0.033 µg/mL | 16300 | – | – | 14.7 nM | 2.08 nM | – | – | – | – | – | ~0.09 µg/mL

The remaining lines, values ahead:

EC50 [1] | gMFI (max) [1] | EC50 [2] | gMFI (max) [2] | EC50 [3] | IC50 [4] | Kd [5] | Kd [6] | binding result [7] | IC50 [8] | IC50 [9] | EC50 [10] | EC50 [11] | EC50 (read off the curve) [12] | Binder
1.02 µg/mL | 35700 | 0.435 µg/mL | 23900 | 1.72 µg/mL | 0.569 µg/mL | 0.556 nM | 0.0481 nM | – | – | – | – | – | – | #27 (antibody, human IgG1, V domains shown, also called D2M002-027) VH: EVQLQQSGAELMKPGASVKISCKITGYTFSSYWIEWVKQRPGHDLEWIGEILPGSGSTNYNEKFKGKASFTADTSSNTAYMQLNSLTSEDSAVYYCARSGAGGYDSGAFAYWGQGTLVTVSA VL: DIVLTQSPASLAVSLGQRATISCRASESVDTYGNSFMHWYQQKPGQPPKLLIYRTSNLESGIPARFSGSGSRTDFTLTINPVEADDVATYYCQQSNEDPWTFGGGTKLEIK
– | – | – | – | – | – | – | – | binds | – | – | – | – | – | Anti-LILRB2 antibody J-19.H1 (antibody, human IgG4 S228P, kappa, V domains shown, also called JTX-8064) VH: QVTLKESGPGILQPSHTLSLTCSFSGFSLNTYAMGVSWIRQPSGKGLEWLASIWWNGNKYNNPSLKSRLTVSKDTSNNQAFLKVTSVDTADTATYYCAHSRIIRFTDYVMDAWGQGASVTVSS VL: DIQMTQSPASLSTFLGEPVTIECRASEDIYNDLAWYQQKPGKSPQLLIYNANSLHTGVPSRFSGSGSGTQYSLKINSLQSEDVASYFCQQYYDYPLTFGSGTKLEIKR

Source: US20250171534A1 (D2M BIOTHERAPEUTICS, published 2025)
